This experiment addresses His-MPK6 (Arabidopsis thaliana, UniProt Q39026 1-395). The experiment can be described thus: pull-down.

His-MPK6, sequence (Q39026 whole entry): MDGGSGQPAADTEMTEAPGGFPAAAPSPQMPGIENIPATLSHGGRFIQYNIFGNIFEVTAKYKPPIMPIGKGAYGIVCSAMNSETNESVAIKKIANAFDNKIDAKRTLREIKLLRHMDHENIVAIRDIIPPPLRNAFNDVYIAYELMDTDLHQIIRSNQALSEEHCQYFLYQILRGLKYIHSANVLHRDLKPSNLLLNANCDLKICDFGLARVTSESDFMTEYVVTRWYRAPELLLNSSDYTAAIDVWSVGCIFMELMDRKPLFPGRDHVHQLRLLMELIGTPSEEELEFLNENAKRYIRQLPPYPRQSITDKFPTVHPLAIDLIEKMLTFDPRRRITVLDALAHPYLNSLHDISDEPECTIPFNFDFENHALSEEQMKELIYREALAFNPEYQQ

B1: GST-MYB15 (natural protein, Arabidopsis thaliana, UniProt Q9LTC4 1-285, looked up)
chain: MGRAPCCEKMGLKRGPWTPEEDQILVSFILNHGHSNWRALPKQAGLLRCGKSCRLRWMNYLKPDIKRGNFTKEEEDAIISLHQILGNRWSAIAAKLPGRTDNEIKNVWHTHLKKRLEDYQPAKPKTSNKKKGTKPKSESVITSSNSTRSESELADSSNPSGESLFSTSPSTSEVSSMTLISHDGYSNEINMDNKPGDISTIDQECVSFETFGADIDESFWKETLYSQDEHNYVSNDLEVAGLVEIQQEFQNLGSANNEMIFDSEMDFWFDVLARTGGEQDLLAGL
B1: the binding result is given as “binds”.

The record behind these values is article PMC5499865 (Nucleic Acids Research, 2017).
